First the molecules themselves.
T1: human DLL3 (immobilized human DLL3 or h293-hDLL3 cells) (human, UniProt Q9NYJ7 27-492, limits assumed)
T1 construct: the sentence says 'immobilized human DLL3 or h293-hDLL3 cells'
T1 sequence: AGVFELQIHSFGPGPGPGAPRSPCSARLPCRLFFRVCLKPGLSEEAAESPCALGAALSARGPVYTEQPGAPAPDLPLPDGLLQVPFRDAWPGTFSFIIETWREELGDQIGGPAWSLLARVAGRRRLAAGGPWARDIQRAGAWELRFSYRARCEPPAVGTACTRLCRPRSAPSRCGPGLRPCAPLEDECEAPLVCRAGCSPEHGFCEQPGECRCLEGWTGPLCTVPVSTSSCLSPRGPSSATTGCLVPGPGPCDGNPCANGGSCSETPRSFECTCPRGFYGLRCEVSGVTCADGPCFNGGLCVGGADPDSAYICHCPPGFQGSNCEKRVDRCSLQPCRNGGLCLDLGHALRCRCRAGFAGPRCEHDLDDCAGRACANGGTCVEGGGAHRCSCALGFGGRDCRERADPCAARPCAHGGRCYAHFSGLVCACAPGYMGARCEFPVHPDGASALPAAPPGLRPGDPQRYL

B1: SC16.118 (antibody, V domains shown)
VH: EVQLQQSGPDLVKPGASVKISCKASGYSFTGYYMHWVKQSHGKSLEWIGRVNPNNGGTSYNQKFKGKAILTADKSSSTAYMELRSLTSEDSAVYYCARGSYDYAEGWGQGTLVTVSA
VL: DIVLTQSPASLAVSLGQRATISCKASQSVDYDGDSYLTWYQQKPGQPPKLLIYAASNLESGIPARFSGSGSGTDFTLNIHPVEEEDAATYYCQQSNEDPYTFGGGTKLEIK
notes: murine mAb; variable regions only
B2: SC16.134 (antibody, V domains shown)
VH: B1 VH with S44R, S59N, A72V, Y103N
VL: B1 VL with Y31H, D32A, L37M, T38N
notes: as for B1
B3: SC16.140 (antibody, V domains shown)
VH: QVQLQQSGPELVRPGASVKMSCKASGYTFTSYWMHWVKQRPGQGLEWIGMIDPSNSETRLNQKFKDKATLNVDKSSNTAYMQLSSLTSEDSAVYYCAVMDYYFDYWGQGTTLTVSS
VL: DIVLTQSLASLAVSLGQRATISCRASKSVSTSGYSYMHWYQQKPGQPPKLLIYLASNLESGVPARFSGSGSGTDFTLNIHPVEDEDAATYYCQHSRELPFTFGGGTKLEIK
notes: as for B1
B4: SC16.116 (antibody, V domains shown)
VH: QVQLKQSGPGRVQPSQSLSITCTVSGFSLTSNGVHWVRQSPGKGLEWLGVLWSGGSTDYNAAFISRLSISKDNYKSQVFFKMNSLQANDTAIYYCARNNNRYGAMDYWGQGTSVTVSS
VL: DIVMTQSPSSLTVTAGEKVTMSCTSSQSLLTSGNQKNYLTWYQQKPGQPPKLLIYWASTRESGVPDRFTGSGSGTDFTLTISSLQAEDLAVYYCQNDYSLTFGAGTKLELK
notes: as for B1
B5: SC16.137 (antibody, V domains shown)
VH: EVQLVESGGDLVKPGGSLKLSCAASGFTFSSYGMSWVRQTPDKRLEWVATISSGGSYTYYPDSVKGRFTISRDNAKNTLYLQMSSLKSEDTAMYYCARRRADAMDYWGQGTSVTVSS
VL: QIVLTQSPAIMSASLGEEITLTCSASSSVSYMHWYQQKSGTSPKLLIYSTSNLASGVPSRFSGSGSGTFYSLTISSVEAEDAADYYCHQWSSYHTFGGGTKLEIKR
notes: as for B1
B6: SC16.115 (antibody, V domains shown)
VH: DVKLVESGGGLVKPGGSLKLSCAASGFTFSSYTMSWVRQTPEKRLEWVATISSGGSYPYYPDSVKGRFTISRDNAKNTLYLQMSSLKSEDTAMYYCTRDVYDGYSYWGQGTTLTVSS
VL: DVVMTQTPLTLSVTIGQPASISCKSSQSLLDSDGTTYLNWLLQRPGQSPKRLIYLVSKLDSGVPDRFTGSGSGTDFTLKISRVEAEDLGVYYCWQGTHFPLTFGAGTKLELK
notes: as for B1
B7: SC16.122 (antibody, V domains shown)
VH: EVQLVESGGGLVKPGGSLKLSCAASGFTFSDYYMFWVRQTPEKRLEWVATISDGGSYTYFPDSVKGRFTISRDNAQNNLYLQMSSLKSEDTAMYYCARAGTLYAMDYWGQGTSVTVSS
VL: DIVMTQSQKFMSTSVGDRVSVTCKASQNVGTNVAWYQQKPGQSPKVLIYSASYRYSGVPDRFTGSGSGTDFTLTISNVQSEDLAEFFCQQYNSYPLTFGGGTKLEIK
notes: as for B1
B8: SC16.114 (antibody, V domains shown)
VH: EVQLQQSGAELVKPGASVKLSCTASGFNIKDTYIHWVKQRPEQGLEWIGRIDPANGNTKYDPKFQGKATITPDTSSNTAYLQLSSLTSEDTAVYYCARSWRNYGSSFWYFDVWGAGTTVTVSS
VL: QIVLSQSPAILSASPGEKVTMTCRASSSVSYMHWYQQKPGSSPKPWIYATSNLASGVPARFSGSGSGTSYSLTISRVEAEDAATYYCQQWSSNPYTFGGGTKLEIK
notes: as for B1
B9: SC16.135 (antibody, V domains shown)
VH: QVQLQQSGAELVRPGTSVKVSCKASGYAFTNYLIEWVKQRPGQGLEWIGVINPGSGGTNSNEKFKAKATLTADKSSSTAYMQLSSLTSADSAVYFCARSDYDYAFYAMDYWGQGTSVTVSS
VL: DIKMTQSPSSMYASLGERVTITCKASQDINRYLSWFQQKPGKSPKTLIYRANRLVDGVPSRFSGSGSGQDYSLTISSLEYEDMGIYYCLQYDEFPFTFGSGTKLEIK
notes: as for B1
B10: SC16.141 (antibody, V domains shown)
VH: QVQLKQSGPGLVAPSQSLFITCTVSGFSLTSYEINWVRQPPGKGLEWLGVIWTGGSTNYNSALISRLSISKDNSKSLVFLKMNSLQTDDTAIYYCVRGVYAMDYWGQGTSVTVSS
VL: B9 VL with R31S
notes: as for B1
B11: SC16.117 (antibody, V domains shown)
VH: QVQLKESGPGLVAPSQSLSITCTVSGFSLTNYGVHWVRQPPGKGLEWLGVIWAGGITNYNSALMSRLSISEDNSKSQVFLKMNSLQTDDTAMYYCARNLGPYAMDYWGQGTSVTVSS
VL: DIQMNQSPSSLSASLGDTITITCHVSQNINVWLSWYQQKPGNIPKLLIQKASNLHTGVPSRFSGSGSGTGFTLTISSLQPEDIATYYCQQGQSYPFTFGSGTKLEIK
notes: as for B1
B12: SC16.131 (antibody, V domains shown)
VH: B11 VH
VL: B11 VL
notes: as for B1
B13: SC16.121 (antibody, V domains shown)
VH: EVQLVESGGGLVQPKGSLKLSCAASGFTFNTYAMNWVRQAPGKGLEWVARIRIKSNNYATYYADSVKDRFTISRDDSQNMLYLQMNNLKTEDTAVYYCVRQGYSYDWGPWFAYWGQGTLVTVSA
VL: QIVLTQSPAIMSASPGEKVTITCSASSSVSYMHWFQQKPGTSPKLWIYSTSNLASGVPARFSGSGSGTSYSLTISRMEAEDAATYYCQQRSSYPPTFGGGTKLEIK
notes: as for B1
B14: SC16.130 (antibody, V domains shown)
VH: EVQLQQSGPELVKPGASVKMSCKASGYTFTSYVMHWVKQKPGQGLEWIGYINPYNDGTEYNEKFKGKATLTSDKSSSTAYMELSSLTSEDSAVYYCARGVYDGYSYFDYWGQGTTLTVSS
VL: DIQLTQSPASLSASVGETVTITCRASGSIHNYLAWYQQKQGKSPQLLVYNAKTLVDGVPSRFSGSGSGTQYSLKINSLQPEDFGYYYCQHFWTTPWTFGGGTKLEIK
notes: as for B1
B15: SC16.136 (antibody, V domains shown)
VH: EVQLQQSGPELVKPGASVKMSCKASGYTFTSYVMHWVKQKPGQGLEWIGYINPYNDGTKYNEKFKGKATLTSDKSSSTAYMELSSLTSEDSAVYYCARDRSGYEDYYGMDYWGQGTSVTVSS
VL: B14 VL with L4M, S28N, Q45H, V55A, Y85S, T93S
notes: as for B1
B16: SC16.123 (antibody, V domains shown)
VH: QVALKESGPGILQPSQTLSLTCSFSGFSLSTSGMGVGWIRQPSGKGLEWLAHIWWDDVKRYNPALKSRLTISKDTSSSQVFLKIASVDTADTATYYCARMEDYGSSSYFDFWGHGTTLTVSS
VL: QIVLTQSPAIMSASLGERVTMTCTASSSVSSSYLHWYQQKPGSSPKLWIYSTSNLASGVPARFSGSGSGTSYSLTISSMETEDAATYYCHQYHRSPFTFGSGTKLEIK
notes: as for B1
B17: SC16.133 (antibody, V domains shown)
VH: QVQLKESGPGLVAPSQSLSITCTVSGFSLTNYAVHWVRQSPGKGLEWLGVIWSDGSTDYNAAFISRLSISKDNSKSQVFFKMNSLQADDTAMYYCARKKGGWFPWFAYWGQGTLVTVSA
VL: SIVMTQTPKFLLVSAGDRVTITCKASQSVSNDVAWYQQKPGQSPKLLIYCASNRYTGVPDRFTGSGYGTDFTFTISTVQAEDLAVYFCQQDYSSPLTFGAGTKLELK
notes: as for B1
B18: SC16.124 (antibody, V domains shown)
VH: EVQLQQSGPELVKPGASVKMSCKASGYTFTSYVMHWVKQKPGQGLEWIGYINPYNDGTKYNEKFKGKATLTSDKSSSTAYMELSSLTSEDSAVYYCARGALYYGNYLGYFDVWGAGTTVTVSS
VL: DIQMTQSPASQSASLGESVTITCLASQTIGTWLAWYQQKPGKSPQLLISAATSLADGVPSRFSGSGSGTKFSFKISSLQAEDFVSYYCQQLYSTPWTFGGGTKLEIK
notes: as for B1
B19: SC16.132 (antibody, V domains shown)
VH: QVQLKESGPGLVAPSQSLSITCTVSGFSLTDYGVSWIRQPPGKGLEWLGVVWGGGSTYYNSALKSRLSITKDNSKSQVFLKMNSLQTDDTAMYYCAKQRGQYGAYWGQGTLVTVSA
VL: B18 VL with S49Y
notes: as for B1
B20: SC16.138 (antibody, V domains shown)
VH: B19 VH with T70S
VL: B18 VL with S49Y, A50S
notes: as for B1
B21: SC16.129 (antibody, V domains shown)
VH: B19 VH with V51I, T70S, K81E, M82L, M92I, Q98H, R99Y, Q101H, G103A
VL: B18 VL with S49Y, W96Y
notes: as for B1

Positions count from the first letter of the chain named.

The target of this experiment is T1, human DLL3 (immobilized human DLL3 or …). Briefly: hybridoma screening on immobilized human DLL3 or on h293-hDLL3 cells.
For B1, the binding result is “binds”. As for B2, the entry is “binds”; as for B3, “binds”; as for B4, “binds”. Then B5, with “binds”. B6: the binding result was “binds”. Turning to B7, the binding result was “binds”.

Consider B8, for which the binding result was “binds”. Then B9, with “binds”. As for B10, the entry is “binds”; as for B11, “binds”; as for B12, “binds”. On to B13, for which the binding result is “binds”. Take B14: the binding result is reported as “binds”. Then B15, with “binds”; and B16, with “binds”; and B17, with “binds”. As to B18, the binding result is recorded as “binds”.

For the molecule B19, the binding result was “binds”. As for B20, the entry is “binds”; as for B21, “binds”.

Values taken from patent publication US20180044415A1 (AbbVie / Abbott, published 2018).
